Assay results taken from article doi:10.1101/489898.

Molecular target: horse liver alcohol dehydrogenase (horse)
Assay: cryo-EM structure

stoichiometry N: 2
Substance: horse liver alcohol dehydrogenase (enzyme)
